1 molecule from publication PMC2120351 (The Journal of Cell Biology, 1995) can be followed below.

The target in series [1] is T1, recombinant whole p62 (rat nucleoporin p62 expressed in E. coli) (rat, UniProt P17955 1-525).
T1 sequence: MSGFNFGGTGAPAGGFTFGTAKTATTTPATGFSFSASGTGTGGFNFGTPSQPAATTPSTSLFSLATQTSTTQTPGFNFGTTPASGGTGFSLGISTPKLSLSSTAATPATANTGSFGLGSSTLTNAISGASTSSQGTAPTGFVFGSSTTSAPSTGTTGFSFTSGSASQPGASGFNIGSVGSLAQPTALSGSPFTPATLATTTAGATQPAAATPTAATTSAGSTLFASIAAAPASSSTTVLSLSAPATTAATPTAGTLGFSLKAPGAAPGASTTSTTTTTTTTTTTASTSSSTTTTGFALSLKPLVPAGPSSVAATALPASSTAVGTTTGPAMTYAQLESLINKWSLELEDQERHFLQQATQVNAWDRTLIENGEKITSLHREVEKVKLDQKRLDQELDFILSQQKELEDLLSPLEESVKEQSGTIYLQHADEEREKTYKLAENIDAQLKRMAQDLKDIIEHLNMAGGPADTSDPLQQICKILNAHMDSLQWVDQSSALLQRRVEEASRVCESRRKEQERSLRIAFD
Kind of series: far-Western, overlay or dot blot.

Series [2] concerns the molecule itself. Briefly: far-Western, overlay or dot blot.

B1: recombinant p62 rod domain (domain or fragment)
chain: MTYAQLESLINKWSLELEDQERHFLQQATQVNAWDRTLIENGEKITSLHREVEKVKLDQKRLDQELDFILSQQKELEDLLSPLEESVKEQSGTIYLQHADEEREKTYKLAENIDAQLKRMAQDLKDIIEHLNMAGGPADTSDPLQQICKILNAHMDSLQWVDQSSALLQRRVEEASRVCESRRKEQERSLRIAFD
With B1, the binding result in series [1] and in series [2] was “binds” throughout.
